Laboratory results reported in the supplement of paper PMC10065799, “High-throughput profiling of sequence recognition by tyrosine kinases and SH2 domains using bacterial peptide display” (eLife, 2023).
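For SH2 binding enrichment of the phosphorylated peptide, bacterial display in this document: peptide library displayed on the E. coli surface as eCPX fusions, selected cells deep-sequenced, score is each peptide's frequency after selection divided by its frequency in the input.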
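For phosphorylation enrichment, bacterial display in this document: 11-residue human phosphosite peptides and single-mutation variants displayed on the E. coli surface, counted by deep sequencing, each peptide's frequency after selection divided by its frequency in the unselected input library; frequency after pTyr selection over input frequency; kinase dosed for 20-30% of maximal phosphorylation in three min.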

The sequences below were run on c-Src (assay: phosphorylation enrichment, bacterial display (enrichment ratio); higher = better substrate or ligand; peptides without Tyr show the background).
Work on AESPEHVHMFT [FAM111A_Y511_Y511H_YF] yielded a phosphorylation enrichment of 0.36.
GINDDHGQLKN [NBN_Y679_Y679H] gave a phosphorylation enrichment of 0.382.
In the case of QRNEEYCLLDS [ITK_Y198_R193Q], the phosphorylation enrichment is reported as 0.963.
With TPIYPYLLPKS [PLD2_Y580_T577I] the phosphorylation enrichment was 0.624.
Work on RAYRHYLLKQK [SCN2A_Y1919_R1918H] yielded a phosphorylation enrichment of 0.583.
EFKKHYGFSLF [ANXA3_Y295_YF] gave a phosphorylation enrichment of 0.46.
With PLQNTYNYNVL [SLC4A1_Y553_K551N] the phosphorylation enrichment was 0.745.
For NFCPGYNNFFN [USH2A_Y467_R464C_YF], the phosphorylation enrichment was 0.719.
For FRNSLYAPDFS [FAM92A_Y226_YF], the phosphorylation enrichment was 1.25.
Sequence KDQGGYTMHQD [MAPT_Y29] has a phosphorylation enrichment of 0.385.
With KSSDVYVSYDC [SORL1_Y136_Y141C] the phosphorylation enrichment was 3.82.
Sequence FSKDIYKRVTG [PANK2_Y405_N404I_YF] has a phosphorylation enrichment of 0.398.
Work on AEEPIYIIVPA [BMXtide_2014] yielded a phosphorylation enrichment of 8.8.
Sequence FCGFSYDDIPD [TMEM230_Y112_R108C_YF] has a phosphorylation enrichment of 0.537.
FQLPFYNMVPS [BMPR1A_Y458_YF] was tested, and the phosphorylation enrichment was 1.06.
FETSHYLASPD [CTNND2_Y1217_P1218L_YF] showed a phosphorylation enrichment of 0.523.
With VKYGAYINDFK [GLB1_Y488_N484K] the phosphorylation enrichment was 0.566.
SLEKSYKLPDG [ACTA1_Y242_E243K] showed a phosphorylation enrichment of 0.41.
LKYAIYFEARE [LAMA2_Y1258] gave a phosphorylation enrichment of 1.49.
DVELLYPVKEK [EPHX1_Y283] was tested, and the phosphorylation enrichment was 0.452.
Work on AFEQQYSPIPK [NOX1_Y373_R378K] yielded a phosphorylation enrichment of 0.802.
Work on IFRAAYFGVFD [SLC25A4_Y191_YF] yielded a phosphorylation enrichment of 0.438.
With RRNEIYEIKVD [LGR5_Y387_H383R] the phosphorylation enrichment was 4.83.
In the case of LSVEIHDRREY [ITGB7_Y753_Y753H], the phosphorylation enrichment is reported as 0.438.
With RNFVRYVQGLK [VWF_Y1400] the phosphorylation enrichment was 0.566.
In the case of SHLSAYPALEG [CD5_Y465], the phosphorylation enrichment is reported as 0.343.
Sequence LLRLAYLADIF [ZBED5_Y476] has a phosphorylation enrichment of 0.419.
For SVVVPYGPPEV [TP53_Y220_E221G], the phosphorylation enrichment was 0.425.
In the case of CTTIHYTYMCN [TP53_Y234_N235T], the phosphorylation enrichment is reported as 0.549.

The sequences below were run against Grb2 SH2 (UniProt P62993) (assay: SH2 binding enrichment of the phosphorylated peptide, bacterial display (enrichment ratio); higher = better substrate or ligand; peptides without Tyr show the background).
Grb2 SH2, sequence (P62993 whole entry, looked up): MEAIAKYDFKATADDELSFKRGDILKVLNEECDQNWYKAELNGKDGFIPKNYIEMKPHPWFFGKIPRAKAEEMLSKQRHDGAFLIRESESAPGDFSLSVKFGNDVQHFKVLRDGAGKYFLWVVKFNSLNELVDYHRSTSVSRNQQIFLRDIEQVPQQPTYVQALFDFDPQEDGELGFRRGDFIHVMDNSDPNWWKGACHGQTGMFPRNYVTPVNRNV
Work on AESPEHVHMFT [FAM111A_Y511_Y511H_YF] yielded an SH2 binding enrichment of 0.786.
GINDDHGQLKN [NBN_Y679_Y679H] gave an SH2 binding enrichment of 0.817.
Work on QRNEEYCLLDS [ITK_Y198_R193Q] yielded an SH2 binding enrichment of 0.924.
TPIYPYLLPKS [PLD2_Y580_T577I] was tested, and the SH2 binding enrichment was 0.943.
Sequence RAYRHYLLKQK [SCN2A_Y1919_R1918H] has an SH2 binding enrichment of 0.677.
Work on EFKKHYGFSLF [ANXA3_Y295_YF] yielded an SH2 binding enrichment of 0.815.
Sequence PLQNTYNYNVL [SLC4A1_Y553_K551N] has an SH2 binding enrichment of 0.81.
NFCPGYNNFFN [USH2A_Y467_R464C_YF] gave an SH2 binding enrichment of 2.15.
For FRNSLYAPDFS [FAM92A_Y226_YF], the SH2 binding enrichment was 0.674.
KDQGGYTMHQD [MAPT_Y29] showed an SH2 binding enrichment of 0.722.
Sequence KSSDVYVSYDC [SORL1_Y136_Y141C] has an SH2 binding enrichment of 0.959.
Sequence FSKDIYKRVTG [PANK2_Y405_N404I_YF] has an SH2 binding enrichment of 0.763.
Sequence AEEPIYIIVPA [BMXtide_2014] has an SH2 binding enrichment of 1.05.
Sequence FCGFSYDDIPD [TMEM230_Y112_R108C_YF] has an SH2 binding enrichment of 1.11.
Sequence FQLPFYNMVPS [BMPR1A_Y458_YF] has an SH2 binding enrichment of 0.952.
With FETSHYLASPD [CTNND2_Y1217_P1218L_YF] the SH2 binding enrichment was 0.923.
Sequence VKYGAYINDFK [GLB1_Y488_N484K] has an SH2 binding enrichment of 7.46.
SLEKSYKLPDG [ACTA1_Y242_E243K] was tested, and the SH2 binding enrichment was 0.889.
For LKYAIYFEARE [LAMA2_Y1258], the SH2 binding enrichment was 0.907.
Sequence DVELLYPVKEK [EPHX1_Y283] has an SH2 binding enrichment of 0.73.
AFEQQYSPIPK [NOX1_Y373_R378K] gave an SH2 binding enrichment of 0.856.
Work on IFRAAYFGVFD [SLC25A4_Y191_YF] yielded an SH2 binding enrichment of 0.832.
RRNEIYEIKVD [LGR5_Y387_H383R] gave an SH2 binding enrichment of 0.986.
In the case of LSVEIHDRREY [ITGB7_Y753_Y753H], the SH2 binding enrichment is reported as 0.733.
Sequence RNFVRYVQGLK [VWF_Y1400] has an SH2 binding enrichment of 0.669.
Work on SHLSAYPALEG [CD5_Y465] yielded an SH2 binding enrichment of 0.897.
LLRLAYLADIF [ZBED5_Y476] was tested, and the SH2 binding enrichment was 1.9.
SVVVPYGPPEV [TP53_Y220_E221G] gave an SH2 binding enrichment of 0.835.
Work on CTTIHYTYMCN [TP53_Y234_N235T] yielded an SH2 binding enrichment of 1.52.

Each sequence was assayed against SHP2-C SH2 in the same assay as above.
AESPEHVHMFT [FAM111A_Y511_Y511H_YF] was tested, and the SH2 binding enrichment was 0.54.
For GINDDHGQLKN [NBN_Y679_Y679H], the SH2 binding enrichment was 1.05.
In the case of QRNEEYCLLDS [ITK_Y198_R193Q], the SH2 binding enrichment is reported as 0.775.
With TPIYPYLLPKS [PLD2_Y580_T577I] the SH2 binding enrichment was 0.855.
Work on RAYRHYLLKQK [SCN2A_Y1919_R1918H] yielded an SH2 binding enrichment of 0.51.
EFKKHYGFSLF [ANXA3_Y295_YF] showed an SH2 binding enrichment of 0.749.
With PLQNTYNYNVL [SLC4A1_Y553_K551N] the SH2 binding enrichment was 0.865.
NFCPGYNNFFN [USH2A_Y467_R464C_YF] showed an SH2 binding enrichment of 0.889.
In the case of FRNSLYAPDFS [FAM92A_Y226_YF], the SH2 binding enrichment is reported as 0.736.
KDQGGYTMHQD [MAPT_Y29] showed an SH2 binding enrichment of 0.349.
With KSSDVYVSYDC [SORL1_Y136_Y141C] the SH2 binding enrichment was 0.583.
FSKDIYKRVTG [PANK2_Y405_N404I_YF] gave an SH2 binding enrichment of 0.598.
In the case of AEEPIYIIVPA [BMXtide_2014], the SH2 binding enrichment is reported as 0.956.
Work on FCGFSYDDIPD [TMEM230_Y112_R108C_YF] yielded an SH2 binding enrichment of 0.674.
For FQLPFYNMVPS [BMPR1A_Y458_YF], the SH2 binding enrichment was 0.652.
Sequence FETSHYLASPD [CTNND2_Y1217_P1218L_YF] has an SH2 binding enrichment of 0.904.
Sequence VKYGAYINDFK [GLB1_Y488_N484K] has an SH2 binding enrichment of 1.06.
Work on SLEKSYKLPDG [ACTA1_Y242_E243K] yielded an SH2 binding enrichment of 0.592.
With LKYAIYFEARE [LAMA2_Y1258] the SH2 binding enrichment was 0.793.
For DVELLYPVKEK [EPHX1_Y283], the SH2 binding enrichment was 0.487.
With AFEQQYSPIPK [NOX1_Y373_R378K] the SH2 binding enrichment was 0.569.
For IFRAAYFGVFD [SLC25A4_Y191_YF], the SH2 binding enrichment was 0.588.
For RRNEIYEIKVD [LGR5_Y387_H383R], the SH2 binding enrichment was 0.692.
With LSVEIHDRREY [ITGB7_Y753_Y753H] the SH2 binding enrichment was 0.473.
With RNFVRYVQGLK [VWF_Y1400] the SH2 binding enrichment was 0.839.
SHLSAYPALEG [CD5_Y465] was tested, and the SH2 binding enrichment was 0.687.
For LLRLAYLADIF [ZBED5_Y476], the SH2 binding enrichment was 1.61.
For SVVVPYGPPEV [TP53_Y220_E221G], the SH2 binding enrichment was 0.671.
CTTIHYTYMCN [TP53_Y234_N235T] showed an SH2 binding enrichment of 6.45.

What follows are sequences tested against c-Src SH2 in the same assay as above.
Work on AESPEHVHMFT [FAM111A_Y511_Y511H_YF] yielded an SH2 binding enrichment of 0.421.
GINDDHGQLKN [NBN_Y679_Y679H] showed an SH2 binding enrichment of 0.481.
QRNEEYCLLDS [ITK_Y198_R193Q] gave an SH2 binding enrichment of 0.599.
TPIYPYLLPKS [PLD2_Y580_T577I] gave an SH2 binding enrichment of 1.17.
RAYRHYLLKQK [SCN2A_Y1919_R1918H] was tested, and the SH2 binding enrichment was 0.442.
Work on EFKKHYGFSLF [ANXA3_Y295_YF] yielded an SH2 binding enrichment of 0.622.
With PLQNTYNYNVL [SLC4A1_Y553_K551N] the SH2 binding enrichment was 2.12.
For NFCPGYNNFFN [USH2A_Y467_R464C_YF], the SH2 binding enrichment was 1.05.
FRNSLYAPDFS [FAM92A_Y226_YF] gave an SH2 binding enrichment of 0.511.
With KDQGGYTMHQD [MAPT_Y29] the SH2 binding enrichment was 0.451.
Sequence KSSDVYVSYDC [SORL1_Y136_Y141C] has an SH2 binding enrichment of 0.766.
FSKDIYKRVTG [PANK2_Y405_N404I_YF] showed an SH2 binding enrichment of 0.41.
Sequence AEEPIYIIVPA [BMXtide_2014] has an SH2 binding enrichment of 0.83.
FCGFSYDDIPD [TMEM230_Y112_R108C_YF] gave an SH2 binding enrichment of 10.3.
FQLPFYNMVPS [BMPR1A_Y458_YF] showed an SH2 binding enrichment of 1.97.
Work on FETSHYLASPD [CTNND2_Y1217_P1218L_YF] yielded an SH2 binding enrichment of 0.473.
In the case of VKYGAYINDFK [GLB1_Y488_N484K], the SH2 binding enrichment is reported as 2.57.
For SLEKSYKLPDG [ACTA1_Y242_E243K], the SH2 binding enrichment was 0.469.
LKYAIYFEARE [LAMA2_Y1258] gave an SH2 binding enrichment of 0.449.
In the case of DVELLYPVKEK [EPHX1_Y283], the SH2 binding enrichment is reported as 0.42.
AFEQQYSPIPK [NOX1_Y373_R378K] gave an SH2 binding enrichment of 0.74.
IFRAAYFGVFD [SLC25A4_Y191_YF] showed an SH2 binding enrichment of 0.546.
With RRNEIYEIKVD [LGR5_Y387_H383R] the SH2 binding enrichment was 0.426.
Work on LSVEIHDRREY [ITGB7_Y753_Y753H] yielded an SH2 binding enrichment of 0.429.
For RNFVRYVQGLK [VWF_Y1400], the SH2 binding enrichment was 0.586.
With SHLSAYPALEG [CD5_Y465] the SH2 binding enrichment was 0.618.
LLRLAYLADIF [ZBED5_Y476] gave an SH2 binding enrichment of 1.34.
In the case of SVVVPYGPPEV [TP53_Y220_E221G], the SH2 binding enrichment is reported as 0.537.
CTTIHYTYMCN [TP53_Y234_N235T] showed an SH2 binding enrichment of 4.85.
